What was measured:
Experiment in all cases: inhibition of transduction of human primary myotubes by virus pre-incubated with recombinant soluble integrin (affinity as inferred by the filing)
[1] = biological target: T1, recombinant soluble human integrin heterodimer αVβ1 (human, UniProt P06756 31-992; P05556 21-728)
T1 construct: Bought (R&D Systems); also called αVβ1 recombinant protein; αVb1

[2] = biological target: T2, recombinant soluble human integrin heterodimer αVβ3 (human, UniProt P06756 31-992; P05106 27-718)
T2 construct: Bought (R&D Systems); also called αVβ3 recombinant protein; αVb3

[3] = biological target: T3, recombinant soluble human integrin heterodimer αVβ8 (human, UniProt P06756 31-992; P26012 43-684)
T3 construct: Bought (R&D Systems); also called αVβ8 recombinant protein; αVb8

[4] = biological target: T4, recombinant soluble human integrin heterodimer αVβ6 (human, UniProt P06756 31-992; P18564 22-707)
T4 construct: Bought (R&D Systems); also called αVβ6 recombinant protein; αVb6

Measured: binding result

T4 sequence (P06756 31-992 limits assumed, chain 1 of 2): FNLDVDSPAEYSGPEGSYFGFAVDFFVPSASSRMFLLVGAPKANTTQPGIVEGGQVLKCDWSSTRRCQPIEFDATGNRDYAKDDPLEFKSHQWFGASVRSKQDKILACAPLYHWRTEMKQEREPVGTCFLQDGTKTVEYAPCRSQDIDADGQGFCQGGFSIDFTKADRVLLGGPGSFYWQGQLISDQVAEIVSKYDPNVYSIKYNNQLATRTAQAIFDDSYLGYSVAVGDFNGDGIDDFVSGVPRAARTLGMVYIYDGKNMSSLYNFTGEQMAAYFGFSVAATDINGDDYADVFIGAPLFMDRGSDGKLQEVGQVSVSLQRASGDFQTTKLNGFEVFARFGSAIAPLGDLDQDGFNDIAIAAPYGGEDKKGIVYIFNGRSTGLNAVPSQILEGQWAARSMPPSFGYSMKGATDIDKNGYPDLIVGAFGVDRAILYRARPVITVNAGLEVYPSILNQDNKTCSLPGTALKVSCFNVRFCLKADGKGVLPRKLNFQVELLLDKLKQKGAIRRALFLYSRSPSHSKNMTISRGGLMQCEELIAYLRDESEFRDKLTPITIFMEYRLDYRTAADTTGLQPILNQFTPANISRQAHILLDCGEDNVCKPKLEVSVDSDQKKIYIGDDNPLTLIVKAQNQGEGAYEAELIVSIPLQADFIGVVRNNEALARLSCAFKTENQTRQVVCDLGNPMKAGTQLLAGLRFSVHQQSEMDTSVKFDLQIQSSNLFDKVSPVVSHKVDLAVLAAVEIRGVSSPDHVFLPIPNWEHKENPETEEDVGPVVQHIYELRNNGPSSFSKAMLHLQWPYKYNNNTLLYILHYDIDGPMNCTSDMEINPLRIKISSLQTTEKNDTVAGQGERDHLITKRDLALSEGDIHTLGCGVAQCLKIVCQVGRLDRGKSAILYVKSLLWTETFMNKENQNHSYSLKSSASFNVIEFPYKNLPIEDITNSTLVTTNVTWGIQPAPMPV
T4 sequence (P18564 22-707 limits assumed, chain 2 of 2): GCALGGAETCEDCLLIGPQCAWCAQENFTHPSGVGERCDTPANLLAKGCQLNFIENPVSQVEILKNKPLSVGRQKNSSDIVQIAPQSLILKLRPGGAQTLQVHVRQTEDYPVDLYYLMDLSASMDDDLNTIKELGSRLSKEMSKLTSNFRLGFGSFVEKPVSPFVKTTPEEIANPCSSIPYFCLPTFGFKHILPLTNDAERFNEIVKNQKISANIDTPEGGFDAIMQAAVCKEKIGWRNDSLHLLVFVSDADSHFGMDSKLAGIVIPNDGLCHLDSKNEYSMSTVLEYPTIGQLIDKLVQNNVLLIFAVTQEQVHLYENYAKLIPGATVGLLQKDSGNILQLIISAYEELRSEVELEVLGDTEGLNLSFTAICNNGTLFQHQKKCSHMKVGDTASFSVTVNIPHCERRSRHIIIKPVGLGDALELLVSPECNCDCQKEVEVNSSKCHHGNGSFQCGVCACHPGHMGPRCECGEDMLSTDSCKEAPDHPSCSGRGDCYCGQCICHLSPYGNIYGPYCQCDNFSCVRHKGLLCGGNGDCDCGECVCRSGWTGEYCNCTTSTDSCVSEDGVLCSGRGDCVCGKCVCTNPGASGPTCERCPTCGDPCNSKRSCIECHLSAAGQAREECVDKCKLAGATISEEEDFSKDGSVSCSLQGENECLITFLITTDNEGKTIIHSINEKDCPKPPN
T2 sequence (P06756 31-992 limits assumed, chain 1 of 2): as the sequence (P06756 31-992 limits assumed, chain 1 of 2) above
T2 sequence (P05106 27-718 limits assumed, chain 2 of 2): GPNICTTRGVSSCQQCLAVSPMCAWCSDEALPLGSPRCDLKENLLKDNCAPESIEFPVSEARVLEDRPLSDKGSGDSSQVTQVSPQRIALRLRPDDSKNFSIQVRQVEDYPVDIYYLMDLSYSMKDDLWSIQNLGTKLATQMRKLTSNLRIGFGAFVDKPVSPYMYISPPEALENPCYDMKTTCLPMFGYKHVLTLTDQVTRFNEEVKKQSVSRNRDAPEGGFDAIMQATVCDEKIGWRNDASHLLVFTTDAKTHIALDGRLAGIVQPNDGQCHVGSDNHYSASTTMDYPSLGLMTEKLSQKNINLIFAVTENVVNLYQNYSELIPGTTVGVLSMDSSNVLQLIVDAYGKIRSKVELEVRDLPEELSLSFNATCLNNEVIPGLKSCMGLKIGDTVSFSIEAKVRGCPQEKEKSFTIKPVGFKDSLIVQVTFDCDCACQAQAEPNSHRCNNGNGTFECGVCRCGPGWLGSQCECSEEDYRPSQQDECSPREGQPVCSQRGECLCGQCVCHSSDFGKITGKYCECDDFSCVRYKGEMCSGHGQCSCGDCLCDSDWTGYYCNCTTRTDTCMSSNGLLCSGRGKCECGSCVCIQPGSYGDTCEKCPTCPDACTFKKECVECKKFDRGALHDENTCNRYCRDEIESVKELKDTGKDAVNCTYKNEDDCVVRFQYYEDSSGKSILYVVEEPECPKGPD
T1 sequence (P06756 31-992 limits assumed, chain 1 of 2): as the sequence (P06756 31-992 limits assumed, chain 1 of 2) above
T1 sequence (P05556 21-728 limits assumed, chain 2 of 2): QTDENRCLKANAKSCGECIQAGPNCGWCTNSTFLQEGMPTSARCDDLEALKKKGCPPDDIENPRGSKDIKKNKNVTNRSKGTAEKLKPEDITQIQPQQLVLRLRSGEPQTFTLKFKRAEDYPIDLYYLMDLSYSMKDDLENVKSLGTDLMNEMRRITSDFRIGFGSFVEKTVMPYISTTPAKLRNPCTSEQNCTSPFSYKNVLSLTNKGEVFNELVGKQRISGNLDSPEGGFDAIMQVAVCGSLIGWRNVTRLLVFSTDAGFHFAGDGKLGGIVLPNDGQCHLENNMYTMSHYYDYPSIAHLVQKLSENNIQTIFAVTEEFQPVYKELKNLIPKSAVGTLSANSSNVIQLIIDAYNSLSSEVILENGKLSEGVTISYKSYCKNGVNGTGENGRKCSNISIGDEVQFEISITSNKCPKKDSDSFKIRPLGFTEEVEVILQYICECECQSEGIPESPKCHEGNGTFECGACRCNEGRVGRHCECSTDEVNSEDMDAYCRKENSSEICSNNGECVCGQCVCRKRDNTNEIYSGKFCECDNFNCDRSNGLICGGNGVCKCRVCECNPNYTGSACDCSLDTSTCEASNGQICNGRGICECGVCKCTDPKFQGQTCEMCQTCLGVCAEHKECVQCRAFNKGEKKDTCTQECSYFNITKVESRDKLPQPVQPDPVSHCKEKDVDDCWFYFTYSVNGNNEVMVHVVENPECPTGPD
T3 sequence (P06756 31-992 limits assumed, chain 1 of 2): as the sequence (P06756 31-992 limits assumed, chain 1 of 2) above
T3 sequence (P26012 43-684 limits assumed, chain 2 of 2): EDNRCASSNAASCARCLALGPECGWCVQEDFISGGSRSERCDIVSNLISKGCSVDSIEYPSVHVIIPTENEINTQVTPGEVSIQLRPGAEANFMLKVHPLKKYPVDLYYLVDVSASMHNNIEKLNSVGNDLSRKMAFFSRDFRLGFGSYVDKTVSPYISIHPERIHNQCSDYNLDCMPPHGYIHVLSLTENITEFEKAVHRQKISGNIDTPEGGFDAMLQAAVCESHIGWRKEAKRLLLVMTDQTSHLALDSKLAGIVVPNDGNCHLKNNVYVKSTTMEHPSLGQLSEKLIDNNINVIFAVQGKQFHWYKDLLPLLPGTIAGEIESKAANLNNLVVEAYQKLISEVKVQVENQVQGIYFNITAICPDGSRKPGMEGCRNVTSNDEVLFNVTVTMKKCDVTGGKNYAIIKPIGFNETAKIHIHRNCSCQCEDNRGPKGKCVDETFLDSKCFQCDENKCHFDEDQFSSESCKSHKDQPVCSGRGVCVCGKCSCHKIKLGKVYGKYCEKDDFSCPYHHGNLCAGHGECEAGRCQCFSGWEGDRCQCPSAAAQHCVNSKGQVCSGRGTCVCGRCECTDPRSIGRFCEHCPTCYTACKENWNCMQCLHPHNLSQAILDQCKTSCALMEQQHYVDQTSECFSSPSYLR

B1: MyoAAV 2A (other)
chain: MAADGYLPDWLEDNLSEGIREWWALKPGAPQPKANQQHQDNARGLVLPGYKYLGPGNGLDKGEPVNAADAAALEHDKAYDQQLKAGDNPYLKYNHADAEFQERLKEDTSFGGNLGRAVFQAKKRLLEPLGLVEEAAKTAPGKKRPVEQSPQEPDSSAGIGKSGAQPAKKRLNFGQTGDTESVPDPQPIGEPPAAPSGVGSLTMASGGGAPVADNNEGADGVGSSSGNWHCDSQWLGDRVITTSTRTWALPTYNNHLYKQISNSTSGGSSNDNAYFGYSTPWGYFDFNRFHCHFSPRDWQRLINNNWGFRPKRLNFKLFNIQVKEVTDNNGVKTIANNLTSTVQVFTDSDYQLPYVLGSAHEGCLPPFPADVFMIPQYGYLTLNDGSQAVGRSSFYCLEYFPSQMLRTGNNFQFSYEFENVPFHSSYAHSQSLDRLMNPLIDQYLYYLSKTINGSGQNQQTLKFSVAGPSNMAVQGRNYIPGPSYRQQRVSTTVTQNNNSEFAWPGASSWALNGRNSLMNPGPAMASHKEGEDRFFPLSGSLIFGKQGTGRDNVDADKVMITNEEEIKTTNPVATESYGQVATNHQGPGRGDQTTLAQAQTGWVQNQGILPGMVWQDRDVYLQGPIWAKIPHTDGNFHPSPLMGGFGMKHPPPQILIKNTPVPADPPTAFNKDKLNSFITQYSTGQVSVEIEWELQKENSKRWNPEIQYTSNYYKSNNVEFAVNTEGVYSEPRPIGTRYLTRNL
notes: Recombinant AAV particle; also called EMyoAAV; enhanced MyoAAV
binds: all assays above
